Assay results: US20260226161A1 (EXELIXIS, published 2026)
Where a chain is given by its changes, count along the chain named.

B1: P12 × A2A2 (1 × 2 format) (bispecific antibody)
heavy 1: DIQMTQSPSSLSASVGDRVTITCRASQSVSSAVAWYQQKPGKAPKLLIYSASSLYSGVPSRFSGSRSGTDFTLTISSLQPEDFATYYCQQFMLEPITFGQGTKVEIKGQPREPQVCTLPPSRDELTKNQVSLTCLVRGFYPSDIAVEWESNGQPENNYKTTPPVLDSDGSFFLYSKLTVDKSRWQQGNVFSCSVMHEALHNHYTQKSLSLSPGKDKTHTCPPCPAPEAAGGPSVFLFPPKPKDTLMISRTPEVTCVVVDVSHEDPEVKFNWYVDGVEVHNAKTKPREEQYNSTYRVVSVLTVLHQDWLNGKEYKCKVSNKALKAPIEKTISKAKGQPREPQVYTLPPSREEMTKNQVSLSCAVKGFYPSDIAVEWESNGQPENNYKTTPPVLDSDGSFFLVSKLTVDKSRWQQGNVFSCSVMHEALHNHYTQKSLSLSPGK
light 1: EVQLVESGGGLVQPGGSLRLSCAASGFTFSSYYIHWVRQAPGKGLEWVATINSRGGFTLYADSVKGRFTISADTSKNTAYLQMNSLRAEDTAVYYCARGYTLTPVLDYWGQGTLVTVSSAQPREPQVYTLPPCRDWLTKNQVSLTCLVKGFYPSDIAVEWESNGQPENNYKTTPPVLDSDGSFFLYSKLTVDKSRWQQGNVFSCSVMHEALHNHYTQKSLSLSPGK
heavy 2: not shown
light 2: EVQLVESGGGLVQPGGSLRLSCAASGFTFSSYYIHWVRQAPGKGLEWVASYVPEDGYTDYADSVKGRFTISADTSKNTAYLQMNSLRAEDTAVYYCARSSDFIPWTSSGGMDYWGQGTLVTVSSASTKGPSVFPLAPSSKSTSGGTAALGCLVKDYFPEPVTVSWNSGALTSGVHTFPAVLQSSGLYSLSSVVTVPSSSLGTQTYICNVNHKPSNTKVDKKVEPKSC
notes: One PD-L1 site, two NKG2A sites; also called P12×A2A2, sFc; P12 × A2A2 sFc
B2: P12 × A11A11 (1 × 2 format) (bispecific antibody)
heavy 1: B1 heavy 1
light 1: B1 light 1
heavy 2: not shown
light 2: EVQLVESGGGLVQPGGSLRLSCAASGFTFSWYYIHWVRQAPGKGLEWVAVIDPISSYTYYADSVKGRFTISADTSKNTAYLQMNSLRAEDTAVYYCARGFDRAMDYWGQGTLVTVSSASTKGPSVFPLAPSSKSTSGGTAALGCLVKDYFPEPVTVSWNSGALTSGVHTFPAVLQSSGLYSLSSVVTVPSSSLGTQTYICNVNHKPSNTKVDKKVEPKSC
notes: One PD-L1 site, two NKG2A sites; also called P12×A11A11, sFc; P12 × A11A11 sFc
B3: P12P12 × A2 (2 × 1 format) (bispecific antibody)
heavy 1: DIQMTQSPSSLSASVGDRVTITCRASQSVSSAVAWYQQKPGKAPKLLIYSASSLYSGVPSRFSGSRSGTDFTLTISSLQPEDFATYYCQQFMLEPITFGQGTKVEIKGQPREPQVCTLPPSRDELTKNQVSLTCLVRGFYPSDIAVEWESNGQPENNYKTTPPVLDSDGSFFLYSKLTVDKSRWQQGNVFSCSVMHEALHNHYTQKSLSLSPGKTASSGGSSSGDIQMTQSPSSLSASVGDRVTITCRASQSVSSAVAWYQQKPGKAPKLLIYSASSLYSGVPSRFSGSRSGTDFTLTISSLQPEDFATYYCQQFMLEPITFGQGTKVEIKGQPREPQVCTLPPSRDELTKNQVSLTCLVRGFYPSDIAVEWESNGQPENNYKTTPPVLDSDGSFFLYSKLTVDKSRWQQGNVFSCSVMHEALHNHYTQKSLSLSPGKDKTHTCPPCPAPEAAGGPSVFLFPPKPKDTLMISRTPEVTCVVVDVSHEDPEVKFNWYVDGVEVHNAKTKPREEQYNSTYRVVSVLTVLHQDWLNGKEYKCKVSNKALKAPIEKTISKAKGQPREPQVYTLPPSREEMTKNQVSLSCAVKGFYPSDIAVEWESNGQPENNYKTTPPVLDSDGSFFLVSKLTVDKSRWQQGNVFSCSVMHEALHNHYTQKSLSLSPGK
light 1: B1 light 1
heavy 2: not shown
light 2: B1 light 2
notes: Two PD-L1 sites, one NKG2A site; also called P12P12 × A2 sFc
B4: P12P12 × A11 (2 × 1 format) (bispecific antibody)
heavy 1: B3 heavy 1
light 1: B1 light 1
heavy 2: not shown
light 2: B2 light 2
notes: Two PD-L1 sites, one NKG2A site; also called P12P12 × A11 sFc
B5: Antibody Clone A3 (antibody, human IgG1, kappa, V domains shown)
VH: EVQLVESGGGLVQPGGSLRLSCAASGFTFSSYYIHWVRQAPGKGLEWVASISPYDGYTDYADSVKGRFTISADTSKNTAYLQMNSLRAEDTAVYYCARSSDFSPWTSSGGMDYWGQGTLVTVSS
VL: DIQMTQSPSSLSASVGDRVTITCRASQSVSSAVAWYQQKPGKAPKLLIYSASSLYSGVPSRFSGSRSGTDFTLTISSLQPEDFATYYCQQYGSSLRTFGQGTKVEIKR
B6: Antibody Clone A2 (antibody, human IgG1, kappa, V domains shown)
VH: B5 VH with I51Y, S52V, Y54E, S103I
VL: B5 VL with S31R, Y55H, L95A

Columns and labels:
[1] = target: T1, Human NKG2A & CD94 with mouse IgG2a Fc tag (AcroBiosystems) (human, UniProt P26715 94-233; Q13241 32-179, limits assumed); experiment: SPR (Carterra), antibody on chip, soluble antigen
T1 construct: Bought soluble antigen of the Carterra assay; also called hNKG2A; not shown: mouse IgG2a Fc tag

Cyno PD-L1 = Cyno PD-L1 (cyno, UniProt G7PSE7 19-238); experiment: SPR (Carterra), antibody on chip, soluble antigen
[2] = target: T2, Human PD-L1 with His tag (AcroBiosystems) (human, UniProt Q9NZQ7 19-238); experiment: SPR (Carterra), antibody on chip, soluble antigen
T2 construct: Bought protein; also called hPD-L1; not shown: His tag

[3] = target: T3, NKG2A expressed on KHYG-1 cells (endogenous) (human, UniProt P26715 1-233; Q13241 1-179); experiment: flow cytometry competition; inhibition of HLA-E tetramer binding to KHYG-1 cells
T3 construct: whole, on cells; Surface NKG2A copy number of approximately 10-20K; also called KHYG-1 cells expressing endogenous NKG2A; NKG2A-expressing cells
Description: 15 μL per well of binder dilution at 2× concentration was plated in a 96-well plate (Costar 3897). 15 μL per well of cell suspension at 5×10⁶ cells per mL was added. Plates were placed at 4° C. for 30 minutes. Following the incubation, 5 μL per well of Fc block (BD Pharmingen Cat #564220) was added at a final concentration of 500 ng per well. Plates were placed at 4° C. for 10 minutes. […] Plates were placed at 4° C. for 1 hour. Following the incubation, 100 μL per well of PBS was added and plate was centrifuged at 400×g for 7 minutes. Supernatant was removed by flicking the plate. Cells were resuspended in 50 μL per well of PBS and analyzed by flow cytometry (Intellicyt).

PD-L1 expressed on cells [4] = target: T4, PD-L1 expressed on cells (UniProt Q9NZQ7 19-290, limits assumed); experiment: cell-based or functional assay
[5] = target: T3, NKG2A expressed on KHYG-1 cells …; experiment: flow cytometry on KHYG-1 cells expressing endogenous NKG2A
Description: (§1) Cells were collected by centrifugation at 400×g for 7 minutes and primary antibody was removed. 50 μL per well of AF488 goat anti human IgG Fab (Jackson Immuno Research 109-547-003) at 1:100 dilution was added. Plates were placed at 4° C. for 30 minutes.
(§2) Cells were collected by centrifugation at 400×g for 7 minutes and secondary antibody was removed. Cells were resuspended in 50 μL per well of PBS and analyzed by flow cytometry. Binding curves were calculated using the mean fluorescence intensity (MFI) of the FITC fluorescence signal on the cells. Bispecific antibody binding was evaluated in KHYG-1 cells expressing endogenous NKG2A and in MC/CAR cells expressing PD-L1. Cells were harvested and assayed for binding as described above.

PD-L1 expressed on cells [6] = target: T4, PD-L1 expressed on cells; experiment: flow cytometry on MC/CAR cells expressing PD-L1
Description: as §1, §2

[7] = target: T3, NKG2A expressed on KHYG-1 cells …; experiment: flow cytometry on KHYG-1 cells expressing endogenous NKG2A; remark: listed apart in the source
Description: Antibodies that were selected for binding to NKG2A, for example, such as those described in Examples 1 and 2, were evaluated for binding to cells that express NKG2A.
Cells were harvested at 70-90% confluence on the day of the assay. Cells were collected by centrifugation at 200×g for 5 minutes and media was removed. Cells were resuspended at 2×10⁶ cells per mL in cold PBS. […] 50 μL per well of the antibody dilution was plated in a 96 well V-bottom plate (Costar 3897). 50 μL per well of cell suspension was added. Plates were placed at 4° C. for 45-60 minutes.

[8] = target: T5, biotinylated human NKG2C/CD94 heterodimer (extracellular domains, Fc fusions) (human, UniProt P26717 94-231; Q13241 32-179, biotinylated); experiment: BLI (Octet), summary of the examples
T5 construct: not shown: N-terminal Fc (hole)
Description: The antibodies were evaluated for binding to (1) human NKG2A, (2) human NKG2C, and (3) cyno NKG2A. Bivalent interaction of binders to biotinylated human NKG2A (see Example 1), biotinylated human NKG2C/CD94 heterodimer, or biotinylated cyno NKG2A/CD94 heterodimer immobilized on a streptavidin biosensor was monitored using Octet (Pall ForteBio) instrument. For these assays, human NKG2C/CD94 and cyno NKG2A/CD94 were prepared using the procedure as described in Example 1. Similarly, the extracellular domain of human NKG2C was expressed and purified from HEK293 cells as heterodimer with CD94 as Fc fusions. The extracellular domain of NKG2C used for selection campaigns encompassed amino acid sequence Ile94-Leu231 (Accession No. P26717-1; SEQ ID NO: 75). The gene encoding CD94 (Accession No. Q13241-1, SEQ ID NO:76), Lys33-Ile159 was synthesized from IDT and cloned into mammalian expression vector as an N-terminal Fc (hole) fusion. Plasmids encoding NKG2C-Fc fusion and CD94-Fc fusion were co-transfected into HEK293T cells using standard procedures. NKG2C/CD94 heterodimer was purified from cell supernatant using Protein A resins. Similar approach was used to obtain Cynomolgus NKG2A protein. Specifically, extracellular domain of Cynomolgus NKG2A contained amino acid Pro 94-Leu 233. […]

[9] = target: T6, biotinylated cyno NKG2A/CD94 heterodimer (extracellular domains) (cynomolgus, UniProt Q9MZJ3 94-233; Q9MZK9 32-179, biotinylated); experiment: BLI (Octet), bivalent
T6 construct: also called Cynomolgus NKG2A protein; not shown: fusion partner/tags ('similar approach' to the human proteins); fusion partner ('similar approach')
Description: A total of 58 binders formatted as IgG antibodies from phage display as described in Example 1 were further tested for binding.
The antibodies were evaluated for binding to (1) human NKG2A, (2) human NKG2C, and (3) cyno NKG2A. Bivalent interaction of binders to biotinylated human NKG2A (see Example 1), biotinylated human NKG2C/CD94 heterodimer, or biotinylated cyno NKG2A/CD94 heterodimer immobilized on a streptavidin biosensor was monitored using Octet (Pall ForteBio) instrument. For these assays, human NKG2C/CD94 and cyno NKG2A/CD94 were prepared using the procedure as described in Example 1. Similarly, the extracellular domain of human NKG2C was expressed and purified from HEK293 cells as heterodimer with CD94 as Fc fusions. The extracellular domain of NKG2C used for selection campaigns encompassed amino acid sequence Ile94-Leu231 (Accession No. P26717-1; SEQ ID NO: 75). The gene encoding CD94 (Accession No. Q13241-1, SEQ ID NO:76), Lys33-Ile159 was synthesized from IDT and cloned into mammalian expression vector as an N-terminal Fc (hole) fusion. Plasmids encoding NKG2C-Fc fusion and CD94-Fc fusion were co-transfected into HEK293T cells using standard procedures. NKG2C/CD94 heterodimer was purified from cell supernatant using Protein A resins. Similar approach was used to obtain Cynomolgus NKG2A protein. Specifically, extracellular domain of Cynomolgus NKG2A contained amino acid Pro 94-Leu 233. […] Extracellular domain of Cynomolgus CD94 contained amino acid residues Lys 33-Ile 179 (Accession No. Q68VD4-1; SEQ ID NO: 78).

T3 sequence (P26715 whole entry, chain 1 of 2): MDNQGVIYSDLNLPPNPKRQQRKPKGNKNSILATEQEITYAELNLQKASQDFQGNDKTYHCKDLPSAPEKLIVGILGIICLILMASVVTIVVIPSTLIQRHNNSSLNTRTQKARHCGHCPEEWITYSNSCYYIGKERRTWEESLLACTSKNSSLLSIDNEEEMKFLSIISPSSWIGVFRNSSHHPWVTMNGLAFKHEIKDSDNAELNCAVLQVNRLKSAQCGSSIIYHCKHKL
T3 sequence (Q13241 whole entry, chain 2 of 2): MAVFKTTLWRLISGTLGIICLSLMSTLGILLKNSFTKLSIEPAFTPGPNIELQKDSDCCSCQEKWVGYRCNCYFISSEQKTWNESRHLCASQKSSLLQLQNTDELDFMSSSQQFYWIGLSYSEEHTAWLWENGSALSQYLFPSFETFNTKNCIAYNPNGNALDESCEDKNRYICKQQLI
T1 sequence (P26715 94-233 limits assumed, chain 1 of 2): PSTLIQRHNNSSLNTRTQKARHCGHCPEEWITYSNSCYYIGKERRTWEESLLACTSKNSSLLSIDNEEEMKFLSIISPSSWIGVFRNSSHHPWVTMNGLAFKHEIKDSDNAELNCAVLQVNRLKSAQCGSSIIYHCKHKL
T1 sequence (Q13241 32-179 limits assumed, chain 2 of 2): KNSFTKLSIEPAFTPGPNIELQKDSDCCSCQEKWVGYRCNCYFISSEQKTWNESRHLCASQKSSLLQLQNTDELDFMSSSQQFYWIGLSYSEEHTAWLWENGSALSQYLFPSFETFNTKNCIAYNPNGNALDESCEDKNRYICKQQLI
T4 sequence (Q9NZQ7 19-290 limits assumed): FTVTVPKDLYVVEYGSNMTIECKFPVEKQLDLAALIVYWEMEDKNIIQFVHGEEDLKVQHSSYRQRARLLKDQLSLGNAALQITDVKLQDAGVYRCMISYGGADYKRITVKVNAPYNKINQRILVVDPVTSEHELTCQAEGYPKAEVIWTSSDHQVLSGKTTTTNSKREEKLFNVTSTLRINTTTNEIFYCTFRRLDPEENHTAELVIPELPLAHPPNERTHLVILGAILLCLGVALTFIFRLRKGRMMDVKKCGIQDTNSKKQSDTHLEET
T2 sequence (Q9NZQ7 19-238 limits assumed): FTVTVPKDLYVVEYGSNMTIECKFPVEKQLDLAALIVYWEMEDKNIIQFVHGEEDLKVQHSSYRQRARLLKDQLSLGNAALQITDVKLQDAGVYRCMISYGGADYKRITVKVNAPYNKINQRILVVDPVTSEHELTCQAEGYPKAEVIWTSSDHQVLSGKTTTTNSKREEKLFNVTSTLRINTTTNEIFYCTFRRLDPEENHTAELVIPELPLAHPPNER
Chain of Cyno PD-L1 (G7PSE7 entry or part of it limits assumed): as the sequence (Q9NZQ7 19-238 limits assumed) above, with A33T, A34S, S62N, R68Q, Q82R, F173L, T185A, T192I, H215L counted along it
T5 sequence (P26717 other isoform, or with tags, fused parts or gaps, chain 1 of 2): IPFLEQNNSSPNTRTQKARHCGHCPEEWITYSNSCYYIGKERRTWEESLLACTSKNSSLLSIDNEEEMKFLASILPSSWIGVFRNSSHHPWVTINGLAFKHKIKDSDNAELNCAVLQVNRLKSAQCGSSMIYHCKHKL
T5 sequence (Q13241 32-179, chain 2 of 2): as the sequence (Q13241 32-179 limits assumed, chain 2 of 2) above
T6 sequence (Q9MZJ3 other isoform, or with tags, fused parts or gaps, chain 1 of 2): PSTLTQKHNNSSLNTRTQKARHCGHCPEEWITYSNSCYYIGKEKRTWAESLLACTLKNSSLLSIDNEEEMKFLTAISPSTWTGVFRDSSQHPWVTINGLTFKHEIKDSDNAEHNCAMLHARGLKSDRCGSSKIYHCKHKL
T6 sequence (Q9MZK9 32-179, chain 2 of 2): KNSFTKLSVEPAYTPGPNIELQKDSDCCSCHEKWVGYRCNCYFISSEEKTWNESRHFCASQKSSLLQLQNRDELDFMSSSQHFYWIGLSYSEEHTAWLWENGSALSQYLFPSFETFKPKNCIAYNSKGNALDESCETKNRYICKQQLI

| Binder | Kd [1] [nM] | koff [1] [s⁻¹] | kon [1] [M⁻¹ s⁻¹] | Kd (Cyno PD-L1) [nM] | koff (Cyno PD-L1) [s⁻¹] | kon (Cyno PD-L1) [M⁻¹ s⁻¹] | Kd [2] [nM] | koff [2] [s⁻¹] | kon [2] [M⁻¹ s⁻¹] | EC50 [3] [nM] | IC50 of inhibiting PD-1/PD-L1 interaction in PD-L1+MDA-MB-231 cells (PD-1/PD-L1 Signaling Bioassay, chemiluminescent signal) (PD-L1 expressed on cells [4]) [nM] | EC50 [5] [nM] | EC50 (PD-L1 expressed on cells [6]) [nM] | EC50 [7] [nM] | binding result [8] | binding result [9] |
| --- | --- | --- | --- | --- | --- | --- | --- | --- | --- | --- | --- | --- | --- | --- | --- | --- |
| B1 | 0.15 | 5e-05 | 360000 | 0.12 | 5e-05 | 480000 | 0.15 | 7e-05 | 470000 | 0.36 | 0.689 | 0.149 | 6.49 | – | – | – |
| B2 | 0.34 | 9e-05 | 270000 | 0.13 | 6e-05 | 470000 | 0.24 | 9e-05 | 380000 | 0.42 | 0.567 | 0.168 | 1.76 | – | – | – |
| B3 | – | – | – | – | – | – | – | – | – | 46.4 | 0.714 | 0.827 | 8.67 | – | – | – |
| B4 | – | – | – | – | – | – | – | – | – | – | 0.405 | 1.99 | 3.23 | – | – | – |
| B5 | – | – | – | – | – | – | – | – | – | – | – | – | – | 0.303 | no binding | – |
| B6 | – | – | – | – | – | – | – | – | – | – | – | – | – | 37.5 | no binding | no binding |
